From the nanobody polyreactivity screen of Harvey et al. (2022) come the findings set out here.

This series in a line: yeast display, Sf9 membrane polyspecificity reagent, FACS + sequencing; frameworks hold sequencing errors. Summed up: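 Polyreactivity labels are assigned by the sorting gate from which each nanobody was recovered. The gates were low and high (top ~1%), set on anti-HA fluorescence for expression and streptavidin fluorescence for reagent binding. Before sorting, galactose-induced (36–48 hours) yeast display cells were stained for 1 hour at 4 °C with 10% biotinylated, detergent-solubilized Sf9 membrane reagent.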
Turning to “QVQLVESGGGIVQAGGSLRLRCAASGFIFAVNAKGWYRQAPGKESELVAAISSSGTTNYADSVKGRFTISRDNAKNTVYLQMNSLKPEDTAVYYCNKRWRDKYPQYDYWGLGTQVTVSS”, the “polyreactivity (PSR sort gate)” value was “low polyreactivity”.
The entry for “QVQLVESGGGSVQAGGSLRLSCAASGSIFAQYTMGWYRQAPGKERELVAVISINGVSTYYADSVKGRFTISRDNAKNTVYLQMNSLKPEDTAVYYCNAGISPYEALGYWGQGTQVTVSS” is “low polyreactivity”.
In the case of “QVQLLESGGGLVQAGGSLRISCASSGRTFSSNTMGRYRQAPGKERELVAAISSTDSTYYADSVKGRYTISRDNAKNTVYLQMNSLKPEDTAVYYCAKRPTRRYGYWGQGTQVTVSS” it was “high polyreactivity”; in that of “QVQLVESGGGLVQAGGSLRLSCAASGLTFGYYAMGWYRQAPGKERELVAAISSSGGRTYYADSVKGRFTISRDNAKNTVYLQMNSLKPEDSAVYYCAKSRYATQTDYNYWGQGTQVTVSS”, “high polyreactivity”; in that of “QVQLVESGGGLDQAGGSLRLSCAASGFIFVRNAMGWYRQPPGKERELVAAITRSGGSTSYADSVKGRFTISRDNAKNTVYLQMNSLKPEDTAVYYCASERYPWQLYWSYYGYYYWGQGTQVTVSS”, “high polyreactivity”.
With “QVQLVESGGGLVQAGGSLRLSCAASGSIFPSYARGWDRKAPGKERELVAAISSSGGSTYYADSVKGRFTISRDNAKNTVYLQMNSLKPEDTAVYYCATRYRRWSTVVQDDYWGQGTQVTVSS”, the “polyreactivity (PSR sort gate)” value is reported as “low polyreactivity”.
In the case of “QVQLVDSGGGLVQAGGSLRLSCPASGRIFGRNAMAWYRQAPGKERELVAAISSSGGTYYADSVKGRFTISRDNAKNTVYLQMNSLKPEDTAVYYCAADPLYYWWRGDYWGQGTQVTVSS”, the “polyreactivity (PSR sort gate)” value is “high polyreactivity”.
Regarding “QVQLVESGGGLVQAGGSLRLSCAPTGFTIGWYAMGWYRQAPGKERELVATISWSGSSTYYADSVKGRFTISRDNAKNTVYLQMNSLKPEDTAVYYCNAVYGRFVVLRYDYWAQGTQVTVSS”, the “polyreactivity (PSR sort gate)” value was “high polyreactivity”.
As for “QVQLVESGGGLVQAGGSLRLSCAASGSTFKVYAMGWYRQAPGKERELVAVISGGGRTNYADSVKGRFTISRDNAKNTVYLQMNSLKPEDTAVYYCAAQATYHRYYTYYYWGQGTKVTVSS”, the “polyreactivity (PSR sort gate)” value is “high polyreactivity”.
In the case of “QVQLVESGGGLVQAGGSLRLSCAASGFTFEYNALGWYRQAPGKERELVAAISSGGRTNYADSVKGRFTISRDNAKNTVYLQMNSLKPEDTAVYYCAKRLGVRPAFYYWGQGTLVTVSS”, the “polyreactivity (PSR sort gate)” value is “high polyreactivity”.
Turning to “QVQLVESGGGLVQAGGSLRLSCAASGFTFWYYAMGWYRQAPGKERELVAAITRGGNTNYADSVKGRFTISRDNAKNTVYLQMNSLKPEDTAVYYCAVRFSAPGYYYWGQGTQVTVSS”, the “polyreactivity (PSR sort gate)” value is reported as “high polyreactivity”.
Turning to “QVQLVESGGGLVQAGGSLSLSCAASGSTFWVYAMGWYRQAPGKERELVATISRGGSTNYADSVKGRFTISRDNAKNTVYLQMNSLKPEDTAVYYCAAPRFYGYGYEYWGQGTQVTVSS”, the “polyreactivity (PSR sort gate)” value is “low polyreactivity”.
Take “QVQLVESGGGLVQAGGSLRLSCAASGLTFSLNAMGWYRPAPGKERELVAAIRGSGGSTYYADSVKGRFTISRDNAKNTVYLQMNSLKPEDTAVYYCAASPKRVLRESGVYWGQGTQVTVSS”: the “polyreactivity (PSR sort gate)” value is recorded as “high polyreactivity”.
Take “QVQLVESGGGVVQAGGSLRLSCASSGRTFSRYTMGWYRQAPGKERELVAVITASGTSTYYADSVKGRFTISRDNAKYTVYLQMISQKPEDTAVYYCAAYYPTYYRYSSLTMNYWGQGTQVTVSS”: the “polyreactivity (PSR sort gate)” value is on record as “high polyreactivity”.
Turning to “QVQLVESGGGLVQAGGSLRISCAASGLIFNFNALGWYRQAPGKERELVAAITRSGSTDYADSVKGRFTISRDNAKNTVYLQLNSLKPEDTAVYYCAAEFYLRRFKVTKRYWFDYWGQGTQVTVSS”, the “polyreactivity (PSR sort gate)” value was “low polyreactivity”.
“HVQLVESGGGLVQAGGSLRLSCAASGLIFDWYAMGWYRQAPGKERELVADISYSGGSTNYADSVKGRFTISRDNAKNTVYLQMNSLKPEDTAVYYCAVDYYYPTLTIGYYYWGQGTQVTVSS”: the “polyreactivity (PSR sort gate)” value was “low polyreactivity”.
As for “QVQLVESRGGLVQAGGSLRLSCAASGRTFVPYAMGWYIQAPGKERELVAAISYSGDSTYYADSVKGRFTISRDNAKNTVYLQLNSLKPEDTAVYYCAAPSYFRMGYWGQGTQVTVSS”, the “polyreactivity (PSR sort gate)” value is reported as “low polyreactivity”.
“QVQLVESGGGLVQAGGSLRLSCAASGRTFGRYAMGWYRQAPGKEREFVAAIRSHGVSTYYADSVKGRFTISRDNAKNTVYLQMNSLKPEDTAVYYCAKPSTSYYQRGDYWGQGTQVTVSS”: the “polyreactivity (PSR sort gate)” value is reported as “high polyreactivity”.
With “QVQLVESGGGLVQAGGSLRLSCAASGFTFPLNAMGWYRQAPGKEREFVAAITYSGGGTYYADSVKGRFTISRDNAKNTVYLQMNSLKPEDTAVYYCAAERGYQAHPGQGDYWGQGTQVTVSS”, the “polyreactivity (PSR sort gate)” value is listed as “high polyreactivity”.
Consider “QVQLVESGGGLFKAGGSLRLSCAASGFNFSNYAKGWYRQAPGKERELVATISWSGGRTYYADSVKGRFTISRDNAKNTVYLQMNSLKPEDTEVYYCAAEYYTGYFKYDYWGQGTQVTVSS”, for which the “polyreactivity (PSR sort gate)” value is on record as “high polyreactivity”.
“QVQLVESGGGLVQAGGSLRLSCAASGRIFTHNAMGWYRQAPGKERELVAAISYSGVSTYYADSVKGRFTISRDNAKNTVYLHMNSLKPEDTAVYYCNALIQSWRARIRRYYWGQGTQVTVSS”: the “polyreactivity (PSR sort gate)” value is reported as “low polyreactivity”.
Take “QVQLVESGGGLVQAGGSLRLSCAASGRTFRGYTMGWYRQAPGKERELVAAINWSGGRTYYADSVKGRFTISRDYAKNTVYLQMNSLKPEDTAVYDCNAVTQITGSSDGDYWGQGTQVNVSS”: the “polyreactivity (PSR sort gate)” value is given as “high polyreactivity”.
The entry for “QVQRVESGGGLDQARGSLRLSCAASGITLDRYDMGWYRQAPGKERELVAAISRSGVRTYYADSVKGRFTISRDNAKNTVYLQRNSLKPEDPAVYYCNKGYARRYASGYDYWGQGTQVTVSS” is “high polyreactivity”.
The entry for “QVQLVESGGGLVQAGGSLRLSCAASGFTFGYYAMGRYRQAPGKERELVATITSSGASTYADSVKGRFTISRDNAKNTVYLLMNSLKPEDTAVYYCAADRLPSYWSWYGYDYWGQGTQVTVSS” is “high polyreactivity”; for “QVQLVESGGGLVQAGGSLRLSCAASGFTFKYYTMGWYRHAPGKETELDAVITRSGGSTYADSVKGRFTISRDNAKNTVYLQMNSLKPVDTAVYYCAKGAAGINLVRHDYWGQVTQVTVSS” it is “high polyreactivity”; for “QVQLVESGGGLVQAGGSRRLSCAASGLIFVRYAMGWYRQAPGKERELVATISSRGASTYYADSVKGRFTISRDNAKNTVYFQMNSLKPEDTAVYYCNAGRLRRSYKPYDYWGQGTQVTVSS” it is “high polyreactivity”.
Consider “QVQLVESGGGLVQAGGSLRLSCAASGRTFRYYAMGWYRQTPGKERELVATISKSGGSTYYADSVKGRFTISRDNAKNTVYLQMNSLKPEDTAVYYCATSKSYSAFDYWGQGTQVTVSS”, for which the “polyreactivity (PSR sort gate)” value is “high polyreactivity”.
Regarding “QVQLVESGGGLVQAGGSLRLSCAASGITFGLYVMGWYRQAPRKERELVAANSSGGSTNYADSVKGRFTISRDNAKNPVYLQMNSLKPEDTAVYYCNADRLRPEYDYWGQGTQVTVSS”, the “polyreactivity (PSR sort gate)” value is “low polyreactivity”.
Turning to “QVQLVESGGGLVQAGGSLRLRCAASGRIFGLYAMGWYRQAPGKERQLVAAISRGGGSTYYADSVKGRFTISRDNAKNTVYLQMNSLNPEDTEVYYCATGLGYFSRLDYCGQGTQVTVSS”, the “polyreactivity (PSR sort gate)” value is reported as “low polyreactivity”.
The entry for “QVQLVESGGGLVQAGGSLRLSCAASGFTLGSNVMGWYRQAPGKERELVAGISQSGGRTFYADSVKGRFTISRDNAKNTVYLQMNSLKPEDTAVYYCNKGASPDDYDYWGQGTQVTVSS” is “low polyreactivity”.
As to “QVQLVESGGGLVQAGGSLRLSCAASGSTIYTYVMGWYRPAPGKERELVAAISWSGSSTYYADSVKGRFTISRDNAKNTVYLQMNSLKPEDTAVYYCNAQYRRGWWGVEYGYWGQGTQVTVSS”, the “polyreactivity (PSR sort gate)” value is listed as “low polyreactivity”.
For the sequence “QVQLVESGGGLVQAGGSLRLSCAACGSIFDRYVMGWYRQAPGKERELVAAISSSGGSTYYADSVKGRFTISRDNAKNTVYLQMNSLKPEDTAVYYCAAKFSYGRYNYWGQGTQVTVSS”, the “polyreactivity (PSR sort gate)” value was “high polyreactivity”.
In the case of “QVQLLDSGGGLVQAGGSLRLSCDASGRTIDIYAMGWYRQAPGKERELVAAISSGGSTYYADSVKGRFTISRDNAKNTVYLQMNSLKPEDTAVYYCAVRWYDQVSRRGIGYYWGQGTQVTVSS”, the “polyreactivity (PSR sort gate)” value was “low polyreactivity”.
With “QVQLVESGGGLVQAGGSLRLSCAASGITFTSYVMGWYRQAPGKERELVAAIRWSGGRTYYADSVKGRFTITRDNAKNTVYLQMNSLKPEDTAGYYCAAKRKPRPSYRYGYWGQGTQVTVSS”, the “polyreactivity (PSR sort gate)” value is recorded as “high polyreactivity”.
In the case of “QVQLVESGGGLVQAGGSLRLSCAASGSTFSENAMGWSRQAPGKERELVAAISWGGGSTYYADSVKGRFTISRDNAKNTVYLQMNSLKPEDTAVYYCNADVFDDYGYFESDYWGQGTQVTVSS” it was “low polyreactivity”.
Take “QVHLVESGGGLVQAGGSLRLSCAASGSIFGPYVMGWYRQAPGKEREFVAAIRGSGGSTYYADTVKGRFTISRDNAKNTVYLQMTSLKPEDTAVYYCNASLKYTLYYYWGQGTQVTVSS”: the “polyreactivity (PSR sort gate)” value is “high polyreactivity”.
In the case of “QVQLVESGGGLVQAGGSLRLSCAASGSTISYYAMGWYRQAPGKERELVAGISGSTGTTYYADSVKGRFTISRDNAKNTVYLQMNSLKPEDTAVYYCAKLFPVARPQYGYWGQGTQVTVSS” it was “low polyreactivity”.
With “QVQLVESGGGLVQAGGSLRLSCAASGSTFWYYGMGWYRQAPGKERELVARINWSTGRTYYADSVKGRFTISRDNAKNTVYLQMNSLKPEDTAVYYCNALNPYKGQEAHYDYWGQGTQVTVSS”, the “polyreactivity (PSR sort gate)” value is given as “high polyreactivity”.
As to “QDQLVDSGGGLVQAGGSLRLSCAASGSTFDANAMGWYRQAPGKERELVATISDGGSTNYADSVKGRFTISRDNAKNTVYLQMNSLKPEDTAVYYCAAVKLFLGLGYVYWGQGTQVTVSS”, the “polyreactivity (PSR sort gate)” value is “low polyreactivity”.
For the sequence “QVQLVESGGGLVQAGGSLRLSCAASGSIFISYARGWYRQAPGKERELVAAITWSGDSTYYADSVKGRFTISRDNAKNTVYLQMNSLKPEDTAVYYCAADWYFRNQRGYYWGQGTQVTVSS”, the “polyreactivity (PSR sort gate)” value is given as “low polyreactivity”.
Take “QVQLVESGGGLVQAGGSLRLSCAASGFTIYRYAMGWYRQAPGKERELVAAITWSGVSTYYADSVKGRFTISRDNAKNTVYLQMNSLKPEDTAVYYCAATTYSSSSSHDYWGQGTQVTVSS”: the “polyreactivity (PSR sort gate)” value is “low polyreactivity”.
